Where no end group is shown, it is not given here.
Key:
Assay in all cases: cell-based or functional assay
[1] = molecular target: EDG1 (UniProt P21453 1-382)
[2] = molecular target: CALCRL-RAMP1 (UniProt Q16602 23-461; O60894 27-148)
[3] = molecular target: EDG4 (UniProt Q9HBW0 1-348)
[4] = molecular target: PTGER4 (UniProt P35408 1-488)
[5] = molecular target: HTR5A (UniProt P47898 1-357)
[6] = molecular target: HRH3 (UniProt Q9Y5N1 1-445, limits assumed)
[7] = molecular target: KISS1R (UniProt Q969F8 1-398)
Sequence of KISS1R (Q969F8 whole entry): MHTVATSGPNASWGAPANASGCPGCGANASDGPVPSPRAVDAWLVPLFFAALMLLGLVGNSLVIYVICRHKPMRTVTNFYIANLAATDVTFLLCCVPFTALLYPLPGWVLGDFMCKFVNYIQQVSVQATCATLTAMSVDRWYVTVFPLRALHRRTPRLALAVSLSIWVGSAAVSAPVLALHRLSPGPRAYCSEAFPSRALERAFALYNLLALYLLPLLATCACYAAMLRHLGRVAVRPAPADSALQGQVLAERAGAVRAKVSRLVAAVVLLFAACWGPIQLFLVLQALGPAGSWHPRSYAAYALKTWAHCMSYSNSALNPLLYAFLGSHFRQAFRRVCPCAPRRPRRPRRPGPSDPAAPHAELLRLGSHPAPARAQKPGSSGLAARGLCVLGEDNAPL

[8] = molecular target: T1, P2RY11 (UniProt Q96G91 1-374)
T1 sequence (looked up): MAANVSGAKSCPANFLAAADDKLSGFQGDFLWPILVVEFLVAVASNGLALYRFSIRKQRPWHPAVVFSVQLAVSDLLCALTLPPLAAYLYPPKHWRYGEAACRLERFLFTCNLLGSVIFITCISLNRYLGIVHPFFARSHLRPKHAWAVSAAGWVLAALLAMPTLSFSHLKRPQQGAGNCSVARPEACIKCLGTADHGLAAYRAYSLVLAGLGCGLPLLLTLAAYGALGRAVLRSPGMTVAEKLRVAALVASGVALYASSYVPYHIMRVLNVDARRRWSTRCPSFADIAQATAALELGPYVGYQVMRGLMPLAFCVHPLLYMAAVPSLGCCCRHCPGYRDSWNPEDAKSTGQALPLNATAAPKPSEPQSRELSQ

[9] = molecular target: DRD5 (UniProt P21918 1-477)
Sequence of DRD5 (P21918 whole entry): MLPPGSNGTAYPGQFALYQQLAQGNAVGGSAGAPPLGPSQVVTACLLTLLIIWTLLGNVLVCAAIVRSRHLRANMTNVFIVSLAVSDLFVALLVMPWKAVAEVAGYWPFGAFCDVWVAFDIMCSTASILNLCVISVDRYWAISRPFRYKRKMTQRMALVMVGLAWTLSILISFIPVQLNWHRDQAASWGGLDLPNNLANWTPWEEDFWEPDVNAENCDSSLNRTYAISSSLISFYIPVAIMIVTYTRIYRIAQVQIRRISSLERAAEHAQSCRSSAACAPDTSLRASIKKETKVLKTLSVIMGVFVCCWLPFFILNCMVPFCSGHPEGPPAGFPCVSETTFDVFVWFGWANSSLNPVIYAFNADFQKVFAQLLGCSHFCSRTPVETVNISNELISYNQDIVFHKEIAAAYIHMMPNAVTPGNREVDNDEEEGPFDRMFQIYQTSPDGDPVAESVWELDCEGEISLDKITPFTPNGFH

[10] = molecular target: T2, CX3CR1 (UniProt P49238 1-355)
T2 sequence (looked up): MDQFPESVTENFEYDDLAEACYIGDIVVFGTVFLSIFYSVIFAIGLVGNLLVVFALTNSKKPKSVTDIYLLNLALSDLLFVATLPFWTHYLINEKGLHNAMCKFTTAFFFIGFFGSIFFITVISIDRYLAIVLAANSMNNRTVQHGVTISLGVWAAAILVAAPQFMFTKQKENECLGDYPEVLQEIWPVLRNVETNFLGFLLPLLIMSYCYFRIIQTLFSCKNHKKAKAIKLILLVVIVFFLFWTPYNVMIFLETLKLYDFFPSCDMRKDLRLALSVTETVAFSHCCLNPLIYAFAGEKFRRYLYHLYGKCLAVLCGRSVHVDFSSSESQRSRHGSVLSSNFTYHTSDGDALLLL

[11] = molecular target: T3, EDG6 (UniProt O95977 1-384)
T3 sequence (looked up): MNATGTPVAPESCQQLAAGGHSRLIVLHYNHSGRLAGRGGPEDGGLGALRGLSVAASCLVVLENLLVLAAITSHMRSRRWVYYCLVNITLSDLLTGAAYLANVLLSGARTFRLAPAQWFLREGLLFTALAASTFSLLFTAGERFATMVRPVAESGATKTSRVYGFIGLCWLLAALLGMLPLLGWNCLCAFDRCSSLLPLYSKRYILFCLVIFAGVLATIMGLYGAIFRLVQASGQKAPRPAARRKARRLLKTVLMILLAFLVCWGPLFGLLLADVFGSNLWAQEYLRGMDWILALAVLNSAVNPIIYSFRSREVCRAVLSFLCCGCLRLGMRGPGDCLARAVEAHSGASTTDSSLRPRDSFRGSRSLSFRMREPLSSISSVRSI

[12] = molecular target: CXCR4 (UniProt P61073 1-352)
Sequence of CXCR4 (P61073 whole entry): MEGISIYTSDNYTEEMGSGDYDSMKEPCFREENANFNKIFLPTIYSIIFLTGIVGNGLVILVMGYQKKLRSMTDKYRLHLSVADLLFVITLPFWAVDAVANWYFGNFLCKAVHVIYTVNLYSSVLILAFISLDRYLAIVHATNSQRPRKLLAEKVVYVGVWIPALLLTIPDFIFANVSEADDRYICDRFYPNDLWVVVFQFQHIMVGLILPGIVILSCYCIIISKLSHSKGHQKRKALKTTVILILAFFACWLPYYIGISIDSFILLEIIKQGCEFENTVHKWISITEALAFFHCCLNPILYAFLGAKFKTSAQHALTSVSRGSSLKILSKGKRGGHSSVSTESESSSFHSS

[13] = molecular target: MC3R (UniProt P41968 1-323)
Sequence of MC3R (P41968 whole entry): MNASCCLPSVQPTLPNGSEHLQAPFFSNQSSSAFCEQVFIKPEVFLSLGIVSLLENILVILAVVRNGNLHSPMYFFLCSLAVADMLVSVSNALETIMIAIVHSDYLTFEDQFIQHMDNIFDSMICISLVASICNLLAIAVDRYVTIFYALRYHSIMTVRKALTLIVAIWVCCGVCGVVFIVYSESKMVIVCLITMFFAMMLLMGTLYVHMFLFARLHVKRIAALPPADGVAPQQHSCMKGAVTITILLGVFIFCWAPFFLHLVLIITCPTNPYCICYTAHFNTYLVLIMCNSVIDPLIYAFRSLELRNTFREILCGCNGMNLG

[14] = molecular target: T4, HTR1F (UniProt P30939 1-366)
T4 sequence (looked up): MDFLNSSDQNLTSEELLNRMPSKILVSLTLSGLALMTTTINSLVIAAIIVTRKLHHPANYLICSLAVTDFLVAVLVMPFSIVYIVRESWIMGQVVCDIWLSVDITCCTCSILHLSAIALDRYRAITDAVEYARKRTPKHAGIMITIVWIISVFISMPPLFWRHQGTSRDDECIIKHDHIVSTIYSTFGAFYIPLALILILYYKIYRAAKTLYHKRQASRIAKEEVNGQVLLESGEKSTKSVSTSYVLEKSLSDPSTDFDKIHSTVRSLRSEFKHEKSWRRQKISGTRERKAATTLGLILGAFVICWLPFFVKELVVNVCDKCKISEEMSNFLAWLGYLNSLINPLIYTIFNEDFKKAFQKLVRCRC

[15] = molecular target: T5, ADORA3 (UniProt P0DMS8 1-318)
T5 sequence (looked up): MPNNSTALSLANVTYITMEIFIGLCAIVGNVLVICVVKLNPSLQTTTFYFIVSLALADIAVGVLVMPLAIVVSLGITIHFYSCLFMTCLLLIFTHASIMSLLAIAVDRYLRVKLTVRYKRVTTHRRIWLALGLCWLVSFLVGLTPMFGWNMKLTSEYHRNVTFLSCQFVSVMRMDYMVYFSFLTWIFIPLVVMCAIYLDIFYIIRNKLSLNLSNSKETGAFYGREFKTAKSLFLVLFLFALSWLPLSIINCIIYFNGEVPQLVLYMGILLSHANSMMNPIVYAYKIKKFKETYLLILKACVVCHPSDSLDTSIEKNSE

[16] = molecular target: T6, BRS3 (UniProt P32247 1-399)
T6 sequence (looked up): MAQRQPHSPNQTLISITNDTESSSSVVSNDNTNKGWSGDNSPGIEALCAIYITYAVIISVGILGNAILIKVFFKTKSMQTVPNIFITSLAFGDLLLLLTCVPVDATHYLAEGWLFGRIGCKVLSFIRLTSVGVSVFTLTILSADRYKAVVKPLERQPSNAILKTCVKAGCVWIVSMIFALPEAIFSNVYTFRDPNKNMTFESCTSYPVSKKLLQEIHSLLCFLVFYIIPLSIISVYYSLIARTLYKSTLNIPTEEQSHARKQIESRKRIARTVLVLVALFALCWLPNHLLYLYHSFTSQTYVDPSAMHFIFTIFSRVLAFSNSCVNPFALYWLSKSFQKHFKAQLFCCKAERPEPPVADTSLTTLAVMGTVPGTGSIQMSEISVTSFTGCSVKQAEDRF

Sequence of PTGER4 (P35408 whole entry): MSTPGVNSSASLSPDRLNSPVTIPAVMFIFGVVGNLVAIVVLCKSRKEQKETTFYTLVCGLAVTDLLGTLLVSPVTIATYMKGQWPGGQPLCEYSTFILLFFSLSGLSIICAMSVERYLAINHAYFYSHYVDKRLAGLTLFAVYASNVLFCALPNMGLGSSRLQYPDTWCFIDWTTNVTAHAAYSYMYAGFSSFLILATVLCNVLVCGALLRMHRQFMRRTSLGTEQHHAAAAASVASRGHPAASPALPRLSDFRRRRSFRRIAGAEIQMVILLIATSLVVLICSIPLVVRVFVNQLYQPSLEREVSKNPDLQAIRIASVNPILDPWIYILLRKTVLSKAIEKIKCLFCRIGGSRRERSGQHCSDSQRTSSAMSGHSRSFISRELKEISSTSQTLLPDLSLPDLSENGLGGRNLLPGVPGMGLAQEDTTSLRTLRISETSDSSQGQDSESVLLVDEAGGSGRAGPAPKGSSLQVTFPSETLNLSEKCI
Sequence of HRH3 (Q9Y5N1 whole entry): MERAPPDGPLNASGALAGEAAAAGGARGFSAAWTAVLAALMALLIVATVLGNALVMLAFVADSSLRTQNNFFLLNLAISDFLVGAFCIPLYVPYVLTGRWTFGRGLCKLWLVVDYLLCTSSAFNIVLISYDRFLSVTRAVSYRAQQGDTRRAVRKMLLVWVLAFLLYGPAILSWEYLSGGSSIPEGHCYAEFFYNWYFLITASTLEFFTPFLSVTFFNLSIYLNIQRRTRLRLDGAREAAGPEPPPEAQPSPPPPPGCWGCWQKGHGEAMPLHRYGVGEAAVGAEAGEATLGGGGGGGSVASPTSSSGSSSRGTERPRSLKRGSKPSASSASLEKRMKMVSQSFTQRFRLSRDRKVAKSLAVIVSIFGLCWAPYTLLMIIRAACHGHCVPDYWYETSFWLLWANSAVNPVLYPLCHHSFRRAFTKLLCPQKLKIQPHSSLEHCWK
Sequence of EDG4 (Q9HBW0 whole entry): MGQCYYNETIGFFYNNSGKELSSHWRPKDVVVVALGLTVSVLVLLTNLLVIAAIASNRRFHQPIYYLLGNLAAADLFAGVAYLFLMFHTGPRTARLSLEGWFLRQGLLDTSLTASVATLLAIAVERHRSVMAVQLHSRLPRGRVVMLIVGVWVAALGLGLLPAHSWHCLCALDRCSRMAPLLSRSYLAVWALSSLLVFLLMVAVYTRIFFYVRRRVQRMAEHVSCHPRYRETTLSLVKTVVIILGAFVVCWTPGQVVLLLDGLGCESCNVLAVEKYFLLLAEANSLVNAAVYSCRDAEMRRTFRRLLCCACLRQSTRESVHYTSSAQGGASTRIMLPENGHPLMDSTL
Sequence of EDG1 (P21453 whole entry): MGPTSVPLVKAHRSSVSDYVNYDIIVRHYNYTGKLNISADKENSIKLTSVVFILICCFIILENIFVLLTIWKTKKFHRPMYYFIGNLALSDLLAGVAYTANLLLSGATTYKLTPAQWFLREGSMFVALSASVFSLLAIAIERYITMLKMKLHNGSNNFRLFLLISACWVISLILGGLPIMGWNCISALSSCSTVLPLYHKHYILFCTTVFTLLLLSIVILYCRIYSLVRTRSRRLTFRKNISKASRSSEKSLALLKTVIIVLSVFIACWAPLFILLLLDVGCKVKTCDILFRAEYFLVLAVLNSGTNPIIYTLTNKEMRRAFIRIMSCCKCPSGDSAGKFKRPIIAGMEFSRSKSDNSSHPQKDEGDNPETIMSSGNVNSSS
Sequence of CALCRL-RAMP1 (Q16602 23-461 limits assumed, chain 1 of 2): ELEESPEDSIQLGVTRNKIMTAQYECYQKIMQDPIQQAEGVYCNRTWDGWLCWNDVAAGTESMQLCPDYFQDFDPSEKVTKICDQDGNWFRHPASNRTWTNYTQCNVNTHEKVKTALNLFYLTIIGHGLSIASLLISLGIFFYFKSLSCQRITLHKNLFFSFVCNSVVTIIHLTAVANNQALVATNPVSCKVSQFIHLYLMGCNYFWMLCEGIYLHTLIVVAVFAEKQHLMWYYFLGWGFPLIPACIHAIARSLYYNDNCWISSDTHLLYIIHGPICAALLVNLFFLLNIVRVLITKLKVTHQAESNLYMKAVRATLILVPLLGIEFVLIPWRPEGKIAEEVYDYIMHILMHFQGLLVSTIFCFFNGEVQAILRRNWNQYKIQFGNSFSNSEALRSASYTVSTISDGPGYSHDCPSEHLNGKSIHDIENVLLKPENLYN
Sequence of CALCRL-RAMP1 (O60894 27-148 limits assumed, chain 2 of 2): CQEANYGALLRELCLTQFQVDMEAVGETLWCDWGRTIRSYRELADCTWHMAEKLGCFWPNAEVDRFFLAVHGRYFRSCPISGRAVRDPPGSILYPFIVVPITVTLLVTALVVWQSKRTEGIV
Sequence of HTR5A (P47898 whole entry): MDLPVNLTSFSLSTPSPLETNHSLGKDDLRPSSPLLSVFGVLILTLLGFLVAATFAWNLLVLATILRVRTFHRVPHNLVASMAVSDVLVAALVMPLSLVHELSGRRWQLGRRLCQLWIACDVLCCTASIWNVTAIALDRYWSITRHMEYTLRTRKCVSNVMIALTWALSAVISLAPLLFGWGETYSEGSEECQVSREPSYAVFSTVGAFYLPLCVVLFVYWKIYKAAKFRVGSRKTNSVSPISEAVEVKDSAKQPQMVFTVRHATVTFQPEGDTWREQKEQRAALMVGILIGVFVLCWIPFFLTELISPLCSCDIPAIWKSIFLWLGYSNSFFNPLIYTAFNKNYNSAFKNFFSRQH

## QATVGDVNTDRPGLLDLK (also: synthesised on Rink amide resin, C-terminal amide not given here outright) [octadecaneuropeptide (ODN)]
[1]
  % Activity, arrestin, antagonist mode, 2.5 uM: -25.9%
[2]
  % Activity, arrestin, antagonist mode, 2.5 uM: -19%
[3]
  % Activity, arrestin, antagonist mode, 2.5 uM: 4.6%
[4]
  % Activity, arrestin, antagonist mode, 2.5 uM: -15.1%
[5]
  % Activity, arrestin, antagonist mode, 2.5 uM: -0.3%
[6]
  % Activity, arrestin, antagonist mode, 2.5 uM: -8.6%
[7]
  % Activity, arrestin, antagonist mode, 2.5 uM: 13.2%
[8]
  % Activity, arrestin, antagonist mode, 2.5 uM: -5.6%
[9]
  % Activity, arrestin, antagonist mode, 2.5 uM: 4.2%
[10]
  % Activity, arrestin, antagonist mode, 2.5 uM: -0.8%
[11]
  % Activity, arrestin, antagonist mode, 2.5 uM: 4.5%
[12]
  % Activity, arrestin, antagonist mode, 2.5 uM: -28.5%
[13]
  % Activity, arrestin, antagonist mode, 2.5 uM: -2.1%
[14]
  % Activity, arrestin, antagonist mode, 2.5 uM: -23.3%
[15]
  % Activity, arrestin, antagonist mode, 2.5 uM: 0.5%
[16]
  % Activity, arrestin, antagonist mode, 2.5 uM: -5.8%

From patent US20260184748A1 (University of Pennsylvania, published 2026)
